The nanobody polyreactivity screen of Harvey et al. (2022)

Test: yeast display, Sf9 membrane polyspecificity reagent, FACS + sequencing; frameworks hold sequencing errors
In short: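 After 36–48 hours of galactose induction, yeast (Saccharomyces cerevisiae BJ5465) displaying a synthetic nanobody library were stained at 4 °C for 1 hour with 10% biotinylated, detergent-solubilized Sf9 membrane reagent. Streptavidin microbeads enriched the stained cells before FACS sorting into low and high (top ~1%) gates on anti-HA and streptavidin fluorescence. Each clone's polyreactivity label reflects its gate of origin.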

QVQLVESGGGLVQAGGSLRLSCAASGRTLYNYAKGWYRQAPGKERELDASITWSGGSTYYADSVKGRFTISRDYANNTVYLQMNSLKPEDTAVYYCAAESSPGTFVRYGYRRYYYWGQGTQVTVSS
polyreactivity (PSR sort gate): low polyreactivity

QVQLVESGGGLVQAGGSLRLSCAASGGIFVQNAMGWYRQAPGKERELVAAITNGGSTYYADSVKGRFTISRDNAKNTVYLQMNSLKPEDTAVYYCAVDEYFIQDMDYWGQGTQVTVSS
polyreactivity (PSR sort gate): low polyreactivity

QVQLVDSGGGLVQAGGSLRLSCAASGFTIPYYAMGWYRQAPGKERELVAAISSGGRTNYADSVKGRFTISRDNAKNTVYLPMNSLKPEDTAVYYCATRSYVFAWEFYYWGQGTQVTVSS
polyreactivity (PSR sort gate): high polyreactivity

QVQLVESGGGLVQAGGSLRLSCAASGRILRYYTMGWYRQAPGKERELVAAITWSGGSTNYADSVKGRFTISRDYAKNTVYLQMNSLKPEDSEVYYCNADRRKYYFTYGSWGQGTQVTVSS
polyreactivity (PSR sort gate): high polyreactivity

QVQLVESGGGLVQAGGSLRLSCAASGRTFSRYTMGWYRQAPGKEREFVAAISVNGGTTHYADSVKGRFTISRDNAKNTVYLQMNSLKPEDTAVYYCAARNYLARRYGYWGQGTQVTVSS
polyreactivity (PSR sort gate): high polyreactivity

QVQLVESGGGLVQAGGSLRLSCAASGRTLQWYAMGWYRQAPGKERELVATISSGGSTKYADSVKGRFTISRDNAKNTVYLQMNSLKPEDTAVYYCNAQPYGIYYHRYYYWGQGTQVTVSS
polyreactivity (PSR sort gate): low polyreactivity

QVQLVESGGGLVQAGGSLRLSCAASGYTFSHYDMGWYRQAPGKERELVAGITWSGGSTYYADSVKGRFTISRDNAKNTVYLQMNSLIPEDTSVYYCAAKYYWYYSYSGIPLFDYWGQGTQVTVSS
polyreactivity (PSR sort gate): low polyreactivity

QVQLVESGGGLVQAGGSLRLSCAASGSTFPKNAKGWYRPAPGKERELVAAINTGGSTYYADSVKGRFTISRDNAKNTVYLQMNSLKPEDTAVYYCAARDNYHRDVGHPYDYWGQGTQVTVSS
polyreactivity (PSR sort gate): low polyreactivity

QVQLVESGGGLVQAGGSLRLSCAASGFTFYYYALGWYRQAPGKERELVAAISTRDGNTYYADSVKGRFTISRDNAKNTVYLQMNSLKPEDTAVYYCAADSYSGYNYWGQGTQVTVSS
polyreactivity (PSR sort gate): low polyreactivity

QVQLVESGGGLVQAGGSLRLSCAASGSIFDPYAMGWYRQAPGKERELVAAIDYSGGSTYYADSVKGRFTISRDNAKNTVYLQMNSLKPEDTAVSYCAADYFWLYYSEYGYWGQGTQVTVSS
polyreactivity (PSR sort gate): low polyreactivity

QVQLVESGGGLVQAGGSLRLSCAASGSIFYGYAMGWYRQAAGNERELVAAITTGGSTYCADSVKGRFTISRDNAKNTVYLQMNSLKPEDTAVYYCAAKYYTGGSFEMYYWGQGNQVTVSS
polyreactivity (PSR sort gate): high polyreactivity

QVQLVESGGGLVQAGGSLRLRCAASGSTFWGYAMGWYRQAPGKERELVASITWRGGSTYADSVKGRFTISRDNAKNTVYLQMNSLKPEDTAVYYCNALPYRYRRYDYWGQGTQVTVSS
polyreactivity (PSR sort gate): low polyreactivity

QGQLVESGGGLVQAGGSLRLSCAASGFTFPHYAMGWYRQAPGKERELVAAISWSGGSTFSADSVKGRFTISRDTAKNNVYLQMNSLKPADTAVYYCAARSRSWTPYYYWGQGTQVTVSS
polyreactivity (PSR sort gate): high polyreactivity

QVQLVESGGGLVQAGGSLRLSCAASGSTSGKYAMGWYRQAPGKERELVAGITKGGGGTYYADSVKGRFTISRDNAKNTVYLQMNSLKPEDTAVYYCAAGTLYSLYFGRHGYWGQGTQVTVSS
polyreactivity (PSR sort gate): low polyreactivity

QVQLVESGGGLVQAGGSLRLSCAASGRIFSWYAMGWYRQAPGKERELVARITSGVSTNYADSVKGRFTISRDNEKNTVYLQMNSLKPEDTAVYDCAADDYSCLYYSSTYRYEYWGQGTQVTVSS
polyreactivity (PSR sort gate): low polyreactivity

QDQLVESGGGLVQAGGSLRLSCAASGFIFKWNAMGWYRQAPGKERELVAGITRGGSTYADSVKGRFTISRDNAKNTVYLQMNSLKPEDTAVDYCAAGDYDEYDYWGQGTQVTVSS
polyreactivity (PSR sort gate): high polyreactivity

QVQLVESGGGLVQAGGSLRLSCAASGLIFSSNAMGWYRQAPGKERELVAAISRRGGNTYYADSVKGRFTISRDNAKNTVYLQMNSLKPEDTAVYYCAARRYYVASIYRYDSWGQGTQVTVSS
polyreactivity (PSR sort gate): high polyreactivity

QFQLVESGGGLFQAGARLRLSSAASGNIFNWYALGLYRQAPGKEREFVACISTSGGSTYYADSVKGRFTISRDNAKNSVYLQMNSLKPEDTAVYYCNAKFFVYECLPGPSYWYDYWGQGTQVTVSS
polyreactivity (PSR sort gate): high polyreactivity

QVQLVESGGGLVQAGGSLRLSCAASGSIFWTNAMGWYRQAPGKERELVAAIRVSTGSTYYADSVKGRFTISRDIAKNNVYLQMNSLKPEDTAVYYCNADLYIYEWYPALHSNDYWGQGTQVTVSS
polyreactivity (PSR sort gate): low polyreactivity

QVQLVESGGGLVQAGGSLRLSCAASGSIFRAYAMGWYRQAPGKERELVADISIGDNTYYADSVKGRFTISRDNAKNTVYLQMNSLKPEDTAVYYCAAVSDDVPWYWPQYTILDYWGQGTQVTVSS
polyreactivity (PSR sort gate): high polyreactivity

QVQHVESGGGLVQAGGSLRLRCAASGSIFYRYVMGWYRQAHGKERELVAAISVSGGTTYYADSVKGRITISRDNAKNTVYLQMNRLKPEDTAVYYCAAEDSLTEDPAHDYWGQGTQVTVSS
polyreactivity (PSR sort gate): low polyreactivity

QVQLVESGGGLVQAGGSLRLSCAASGSTFYAYAMGWYSQAPGKERELVAAITRSGGSTYYADSVKGRFTISRDNAKNTVYLQMNSLKPEDTDVYYCNKYGYKGGVGYDYWGQGTQVTLSS
polyreactivity (PSR sort gate): high polyreactivity

QVQLVESGGGLVQAGGSLRLSCAASGFTFVSYAMGWYRQAPGKERELVAAISSRVGSTYYADSVKGRFTISRDNAKNTVYLQMNSLKPEDTAVYYCAASFTDRVTLDYFRSYAFEYWGQGTQVTVSS
polyreactivity (PSR sort gate): low polyreactivity

HEQQQDSGAGLVQAGGSLRLSCAASGNIFDSPRMGWYRQATGKEREFVATIGSGTITNYADSVKGRFTISRDNAKNTVYLQMNSLKPEDTAVYYCAAEFYLRRFKVTKRYWFDYWGQGTQVTVSS
polyreactivity (PSR sort gate): low polyreactivity

QVQLVESGGGLVQAGGSLRLSCAASGRILAGYTMGWYRQAPGKERELVAAISDRGGSTYYADSVKGRFTISRDNAKNTVYLQMNSLKPEDTAVYYCNAVVYSYALTPSYAGDYWGQGTQVTVSS
polyreactivity (PSR sort gate): low polyreactivity

QVQLVESGGGLVQAGGSLRLSCAASGSTFVPNAMGWYRQAPGKERELVAALTFSGGTTYYADSVKGRFTISRDNAKNTVYLQMNSLKPEGTAVYYCAADYFSNLWWSGHAWRYYYWGQGTQVTVSS
polyreactivity (PSR sort gate): low polyreactivity

QVQLVESGGGLVQAGGSLRLSCAASGRTFYYYAMGWYRQAPGKERELVAAINWSSGSTYYADSVKGRFTISRDNAKNTVYLQMNSLKPEDTAVYYCNAESRWYIIPYGDFDYWGQGTQVTVSS
polyreactivity (PSR sort gate): low polyreactivity

QVQLVESGGGLVQAGGSLRLSCAASGRTFSQYAMGWYRQPPGKERELVASISWSGGSTYYADSVKGRFTISRDNAKNTVYLQMNSLKPEDTAVYYCAAVGKGSARSSYPVLYDYWGQGTQVTVSS
polyreactivity (PSR sort gate): low polyreactivity

QVQLVESGGGLVQAGGSLRLSCAASGFTFFYYAMGWYRKAPGKERELVARISSSGGRTYYSDSVKGRFTISRDNAKNTVYLQMNSLKPEDTAVYYCNARYYYYYTRYDYWGQGTQVTVSS
polyreactivity (PSR sort gate): high polyreactivity

QVQLVESGGGLVQAGGSLRLSCAASGFTFHSYAMGWYRQAPGKERELVAAISTGGTRTYYADSVMGRVTISRDNAKNTVYLQMNSLKPEDTAVYYCAADLYRGVRIYSKYDSWGQGTQVTVSS
polyreactivity (PSR sort gate): high polyreactivity

QVQLVESGGGLVQAGGSLRLSCAASGSTFYANAMGWYRQAPGKERELVAEISFSGASTFYADSVKGRFTISRDNAKNTVYLQMNSLKPEDTAVYYCATANPSVVGFDYWGQGTQVTVSS
polyreactivity (PSR sort gate): low polyreactivity

QVQLVESGGGLVQAGGSLRLSCAASGSIFFKYAMGWYRQAPGKERELVASITRGGRTYYADSVKGRFTISRDNAKNTVYLQMNSLKPEDTAVYYCNKRTVWKHDYWGQGTQVTVSS
polyreactivity (PSR sort gate): high polyreactivity

QVQLVESGGGLVQAGGSLRLSCAASGFTFAYYAMGWYRQAPGKERELVAAITRGGGRTFYADSVKGRFTISRDNAKNTVYLQMNSLKPEDTAVYYCAREVYRHYAPVGYDYWGQGTQVTVSS
polyreactivity (PSR sort gate): high polyreactivity

QVKLVESGGGLVQAGGSLRLSCAASGSTFYKYTMGWNRQEPGKGRELVAAINWSGSTYYADSVKGRFTISRDNAKNTVYLQMNSLKTEDTAVYYCAATYIYRYDYWGQGTQVTVSS
polyreactivity (PSR sort gate): high polyreactivity

QVQLVESGGGLVQAGGSLRLSCAASGITFAYYARGWYRQAPGKERELVAAITGDGGYTYYADSVKGRFTISRDNAKNTVYLQMNSLKPEDTAVYYCNAELSDYRYDWWDYDYWGQGTQVTVSS
polyreactivity (PSR sort gate): high polyreactivity

QVQLVESGGGLVQAGGSLRLSCAASGRIFFTYTMGWYRQAPVNERELVAAITGGGARTYYADSVKVRFTISRDYAKNTVYLQMNSLKPEDSAVYYCAKGWQRIGFYYWGQGTQVTVSS
polyreactivity (PSR sort gate): high polyreactivity

QVQLVESGGGLVQAGGSLRLSCAASGRIFTYYAMGWYRQAPGKERELVAAITSRGGRTYYADSVKGRFTISRDNAKNTVYLQMNSLKPEDTAVYYCNVDRWRRTISHDIYGYWGQGTQVTVSS
polyreactivity (PSR sort gate): high polyreactivity

QDQLVESGGGLVQAGGSLRLICSASGIILGSNAMGWYRQAPGKERELVAAITSSGSTYYADSVKGRFTISRDNAKNTVYIQMNSLKPEDTAVYYCATGWLRRAVRFNYWGQGTQVTLSS
polyreactivity (PSR sort gate): high polyreactivity

QVQLVESGGGLVQAGGSLRLSCAASGFTFRRYAMGWYRQAPGKERELVARISFNGGSTFYADSVKGRFTISRDNAKNTVYLQMNSLKPEDTAVYYCAAVFGGRSLSRTYGYDYWGQGTQVTVSS
polyreactivity (PSR sort gate): high polyreactivity

QVQLVESGGGLVQAGGSLRLSCAASGRIFFYYAMGWYRQAPGKEREFVAAISTSSGSTYYADSVKGRFTISRDNAKNTVYLQMNSLKPEDTAVYYCAADEVYSRGIWPVEDDYWGQGTQVTVSS
polyreactivity (PSR sort gate): low polyreactivity

QVQIVESGGGLVEAGGSLRLSCAASGRTFWYIAMGWYRQSPGKASELVAAISYTGSRTYYADSVKGRFTISRYNAKNTVYLQMNSLKPDDTAVYYCNALARRPDAYAHYGYWGQGTQVSVSS
polyreactivity (PSR sort gate): high polyreactivity

QVQLVESGGGLVQAGGSLRLSCAASGRMFSAYAMGWYRQAPGKERELVAAITSVGSTKYADSVKGRFTISRDNAKNTVYLQMNSLKPEDTAVYYCAAEYTRSFYIYYRFGYWGQGTQVTVSS
polyreactivity (PSR sort gate): high polyreactivity

QVQLVESGGGLVQAGGSLRLSCAASGRIFEKYAMRWYREAPGKERELVAAMTRSGGRTYYADSVKGRFTISRDNAKNTVYLQMNSQKPEDTAVYYCAARYVSRFDWGQGTQVTVSS
polyreactivity (PSR sort gate): high polyreactivity
